The results in this text go back to doi:10.1101/2024.12.30.630799.

The test concerns the target BE-eRNP adenine base editor: bipartite NLS, TadA (ABE8.20-m variant), 32-amino acid glycine/serine-rich linker, S. pyogenes nCas9 (D10A, C80A), bipartite NLS, complexed with sgRNA (Escherichia coli | Streptococcus pyogenes). Kind of test: not stated; oligomeric state of the purified eRNPs (protein combined with sgRNA); the method stands only in Supp Figures 1-3.

As a reminder, the stoichiometry N is a count of units in the complex or per binding partner.

For “BE-eRNP adenine base editor: bipartite NLS, TadA (ABE8.20-m variant), 32-amino acid glycine/serine-rich linker, S. pyogenes nCas9 (D10A, C80A), bipartite NLS, complexed with sgRNA (enzyme)”, the stoichiometry N is 2.
